Data published in the supplement of paper PMC10567573.

B1: RIT1 (parent)
chain: FHALVREIRRKEKEAVLAMEKKSK
B2: GALNT9 (parent)
chain: FTQSGPIVSRATGRCLEVEMSKDA

Variants of: B1
Assay: protein stability index of a GFP-peptide fusion (GPS, HEK-293T) (PSI 1-6); higher = more stable
Details: c terminus: a fixed tail appended
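Further: lentivirally expressed fusions sorted by FACS into six bins by GFP to DsRed ratio, PSI derived from sequencing read proportions per bin multiplied by bin number.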

| Variant | protein stability index |
| --- | --- |
| K24W | 1.24 |
| K24T | 1.34 |
| K24R | 2.59 |
| K24P | 1.17 |
| K24S | 1.38 |
| K24Q | 1.23 |
| K24Y | 1.86 |
| K24V | 1.46 |

Variants of: B2
Assay: as above
Details: c terminus: a fixed tail appended

| Variant | protein stability index |
| --- | --- |
| P6M | 3.4 |
| P6C | 1.72 |
| P6D | 2.08 |
| P6E | 1.85 |
| P6T | 1.42 |
| P6N | 1.07 |
| M20D | 4.53 |
| M20H | 2.65 |
| M20V | 2.18 |
| M20A | 3.61 |
| M20T | 3.24 |
| M20Q | 3.23 |
| M20E | 3.66 |
| M20W | 1.55 |
| M20G | 3.21 |
| M20K | 2.32 |
| M20F | 1.93 |
| M20S | 3.05 |
| M20R | 2.73 |
| M20P | 3.38 |
| M20Y | 2.46 |
| M20L | 3.75 |
| M20I | 2.28 |

| Variant | protein stability index |
| --- | --- |
| M20C | 1.89 |
| M20N | 3.34 |
| R14C | 1.78 |
| R14V | 1.71 |
| R14T | 1.99 |
| R14A | 2.84 |
| R14E | 3.03 |
| R14K | 1.95 |
| R14L | 1.9 |
| R14P | 3.1 |
| R14Y | 1.82 |
| R14I | 2.78 |
| R14S | 1.98 |
| R14H | 2.06 |
| R14N | 2.88 |
| R14F | 1.61 |
| S4K | 1.88 |
| S4Q | 2.35 |
| S4E | 2.3 |
| S4G | 2.01 |
| S4N | 1.85 |
| S4H | 1.91 |
| S4T | 2.82 |

| Variant | protein stability index |
| --- | --- |
| S4L | 2.78 |
| S4I | 3.66 |
| S4A | 2.37 |
| S4P | 2 |
| S4C | 1.48 |
| S4Y | 2.24 |
| V8M | 2.38 |
| V8N | 2.03 |
| V8W | 3.04 |
| V8C | 2.04 |
| V8R | 1.83 |
| V8S | 3.41 |
| V8P | 2.07 |
| V8T | 1.42 |
| V8H | 2.58 |
| V8Q | 2.25 |
| V8D | 3.27 |
| V8I | 2.54 |
| V8G | 1.96 |
| G5H | 2.42 |
| G5L | 1.53 |
| G5V | 2.39 |
| G5R | 1.66 |

| Variant | protein stability index |
| --- | --- |
| G5C | 2.57 |
| G5D | 2.74 |
| G5N | 2.34 |
| G5A | 1.81 |
| G5S | 2.54 |
| G5T | 2.46 |
| G5I | 1.64 |
| G5F | 2.62 |
| G5Q | 2.37 |
| G5Y | 3.35 |
| K22D | 3.38 |
| K22A | 3.13 |
| K22C | 2.56 |
| K22I | 1.71 |
| K22Q | 2.26 |
| K22H | 1.76 |
| K22Y | 2.62 |
| K22N | 2.74 |
| K22P | 3.13 |
| K22S | 2.12 |
| K22G | 2.7 |
| K22L | 1.95 |
| K22R | 1.32 |

| Variant | protein stability index |
| --- | --- |
| I7A | 2.25 |
| I7R | 2.08 |
| I7C | 1.89 |
| I7T | 2.36 |
| I7N | 2.73 |
| I7P | 2.78 |
| I7H | 2.66 |
| I7S | 2.52 |
| I7Q | 1.98 |
| I7D | 3.31 |
| I7L | 1.18 |
| I7E | 2.63 |
| I7M | 1.78 |
| I7G | 1.79 |
| G13P | 1.81 |
| G13N | 2.41 |
| G13D | 3.13 |
| G13K | 1.91 |
| G13T | 2.16 |
| G13H | 1.99 |
| G13Q | 1.55 |
| G13I | 1.14 |
| G13E | 2.76 |

| Variant | protein stability index |
| --- | --- |
| G13V | 1.81 |
| G13M | 1.45 |
| G13Y | 4.09 |
| G13R | 2.6 |
| G13A | 1.86 |
| G13S | 1.76 |
| G13F | 2.15 |
| T2Y | 2.53 |
| T2A | 1.92 |
| T2K | 1.72 |
| T2D | 2.97 |
| T2L | 2.25 |
| T2I | 2.01 |
| T2Q | 2.35 |
| T2N | 2.17 |
| T2E | 3.58 |
| T2S | 2.71 |
| T2C | 2.96 |
| T2F | 3.05 |
| T2W | 1.43 |
| T2R | 1.75 |
| L16S | 1.75 |
| L16Y | 1.99 |

| Variant | protein stability index |
| --- | --- |
| L16I | 1.4 |
| L16V | 2.33 |
| L16N | 3.04 |
| L16D | 3.53 |
| L16M | 2.29 |
| L16T | 3.25 |
| L16P | 3.02 |
| L16K | 2.27 |
| L16H | 2.81 |
| L16A | 1.96 |
| L16W | 2.35 |
| L16Q | 2.81 |
| L16G | 2.52 |
| L16F | 2.37 |
| L16E | 3.65 |
| L16R | 3.09 |
| L16C | 2.08 |
| S9L | 2.43 |
| S9A | 4.78 |
| S9N | 2.06 |
| S9P | 2.05 |
